Assay results as given in patent US5792629A, “Isolated DNA encoding novel protease inhibitory polypeptide” (Mochida Pharmaceutical Co., Ltd., priority 1990, dated 1998).

B1: TL66: polypeptide defined by formula 8; known enzyme-digested fragment of urinary trypsin inhibitor, made in E. coli JE5505 (pM551) (protein)
chain: TVAACNLPIVRGPCRAFIQLWAFDAVKGKCVLFPYGGCQGNGNKFYSEKECREYCGVPGDGDEELL
B2: TN70: polypeptide defined by the amino acid sequence of formula 3, purified from culture supernatant of E. coli JE5505 (pM552) (protein)
chain: TVAACNLPIVRGPCRAFIQLWAFDAVKGKCVLFPYGGCQGNGNKFYSEKECREYCGVPGDGDEELLRFSN
B3: UTI: urinary trypsin inhibitor purified from human urine (Mochida Pharmaceutical), used as positive control (protein)
chain: AVLPQEEEGSGGGQLVTEVTKKEDSCQLGYSAGPCMGMTSRYFYNGTSMACETFQYGGCMGNGNNFVTEKECLQTCRTVAACNLPIVRGPCRAFIQLWAFDAVKGKCVLFPYGGCQGNGNKFYSEKECREYCGVPGDGDEELLRFSN
modifications: glycoprotein (sugar moieties, as the filing says in general of UTI)

How the values were obtained:
human plasma kallikrein = target: T1, human plasma kallikrein (Homo sapiens, UniProt P03952); assay: Human plasma kallikrein-inhibiting activity, substrate S-2302; type: biochemical; conditions: for human plasma kallikrein-inhibiting activity: purified sample, various concentrations, remaining activity vs buffer control (FIG. 17A-C)
T1 construct: purchased Sigma Chemical Co
Experimental: (§1) The purified sample obtained in Example 1-(5) was dissolved in 100 μl of distilled water. Concentration of this solution was determined based on its bovine trypsin-inhibiting activity using the aforementioned UTI as a standard. The solution was then diluted to various concentration levels with 0.1% BSA/150 mM NaCl/50 mM Tris-HCl buffer (pH 8.3) for use in the activity measurement. The UTI was also diluted in the same manner. Using a synthetic compound S-2302 (Daiichi Pure Chemicals Co., Ltd.) as a substrate, human plasma kallikrein-inhibiting activities of the diluted test samples and the positive control were measured in accordance with the method of Ohno et al. (Ohno,H. et al., Thromb. Res., vol.19, pp.579-588, 1980) as follows.
0.26 U/ml solution of human plasma kallikrein (Sigma Chemical Co.) was diluted with 0.1% BSA/150 mM NaCl/50 mM Tris-HCl buffer (pH 8.3) to prepare 0.08 U/ml of plasma kallikrein solution. 4 mM solution of S-2302 was prepared by dissolving it in distilled water and the solution was further diluted with 0.1% BSA/150 mM NaCl/50 mM Tris-HCl buffer (pH 8.3) to prepare 2 mM solution of S-2302.
Next, 25 μl of the test sample or positive control was mixed with 75 μl of 0.1% BSA/150 mM NaCl/50 mM Tris-HCl buffer (pH 8.3) and 50 μl of the plasma kallikrein solution. After incubation at 37° C. for 10 minutes, 50 μl of the S-2302 solution was added to the mixture to start the reaction. The reaction was carried out at 37° C. for 8 minutes and then stopped by adding 25 μl of 50% acetic acid solution to the reaction mixture. Thereafter, absorbance at 405 nm was measured using a spectrophotometer.
In this instance, in order to eliminate absorbance of various solutions in the reaction mixture a blank solution was prepared by mixing 50 μl of the plasma kallikrein solution with 25 μl of 50% acetic acid and then with 25 μl of each test sample or the positive control, 75 μl of 0.1% BSA/150 mM NaCl/50 mM Tris-HCl buffer (pH 8.3) and with 50 μl of the S-2302 solution.
In this figure, human plasma kallikrein remaining activity was expressed by percentage based on the absorbance of a control reaction mixture in which 25 μl of 0.1% BSA/150 mM NaCl/50 mM Tris-HCl buffer (pH 8.3) was used instead of the test sample or the positive control.

FXa = FXa (Homo sapiens, UniProt P00742); assay: Human FXa-inhibiting activity, substrate S-2222; type: biochemical; parameters: purchased American Diagnostica Inc; conditions: for human FXa-inhibiting activity: purified sample, various concentrations, remaining activity vs buffer control (FIG. 18A-C)
Experimental: as §1, with “NaCl/5 mM CaCl2 /50” for “NaCl/50”, “S-2222” for “S-2302”, “FXa-inhibiting” for “plasma kallikrein-inhibiting”
Human FXa (American Diagnostica Inc.) was dissolved in distilled water to a concentration of 10 PEU/ml and the solution was further diluted with 0.1% BSA/150 mM NaCl/5 mM CaCl2 /50 mM Tris-HCl buffer (pH 8.3) to prepare 0.1 PEU/ml of FXa solution. 4 mM solution of S-2222 was prepared by dissolving it in distilled water and the solution was further diluted with 0.1% BSA/150 mM NaCl/5 MM CaCl2 /50 mM Tris-HCl buffer (pH 8.3) to obtain 2 mM solution of S-2222.
Next, 25 μl of the test sample or positive control was mixed with 100 μl of 0.1% BSA/150 mM NaCl/5 mM CaCl2 /50 mM Tris-HCl buffer (pH 8.3) and 25 μl of the FXa solution. After incubation at 37° C. for 10 minutes, 100 μl of the S-2222 solution was added to the mixture to start the reaction. The reaction was carried out at 37° C. for 30 minutes and then stopped by adding 50 μl of 50% acetic acid solution to the reaction mixture. Thereafter, absorbance at 405 nm was measured using a spectrophotometer.
In this instance, in order to eliminate absorbance of various solutions in the reaction mixture, a blank solution was prepared by mixing 25 μl of the FXa solution with 50 μl of 50% acetic acid and then with 25 μl of each test sample or the positive control, 100 μl of 0.1% BSA/150 mM NaCl/5 mM CaCl2 /50 mM Tris-HCl buffer (pH 8.3) and with 100 μl of the S-2222 solution.
In this figure, human FXa remaining activity was expressed by percentage based on the absorbance of a control reaction mixture in which 25 μl of 0.1% BSA/150 mM NaCl/5 mM CaCl2 /50 mM Tris-HCl buffer (pH 8.3) was used instead of the test sample or the positive control.

T1 sequence (P03952 20-638): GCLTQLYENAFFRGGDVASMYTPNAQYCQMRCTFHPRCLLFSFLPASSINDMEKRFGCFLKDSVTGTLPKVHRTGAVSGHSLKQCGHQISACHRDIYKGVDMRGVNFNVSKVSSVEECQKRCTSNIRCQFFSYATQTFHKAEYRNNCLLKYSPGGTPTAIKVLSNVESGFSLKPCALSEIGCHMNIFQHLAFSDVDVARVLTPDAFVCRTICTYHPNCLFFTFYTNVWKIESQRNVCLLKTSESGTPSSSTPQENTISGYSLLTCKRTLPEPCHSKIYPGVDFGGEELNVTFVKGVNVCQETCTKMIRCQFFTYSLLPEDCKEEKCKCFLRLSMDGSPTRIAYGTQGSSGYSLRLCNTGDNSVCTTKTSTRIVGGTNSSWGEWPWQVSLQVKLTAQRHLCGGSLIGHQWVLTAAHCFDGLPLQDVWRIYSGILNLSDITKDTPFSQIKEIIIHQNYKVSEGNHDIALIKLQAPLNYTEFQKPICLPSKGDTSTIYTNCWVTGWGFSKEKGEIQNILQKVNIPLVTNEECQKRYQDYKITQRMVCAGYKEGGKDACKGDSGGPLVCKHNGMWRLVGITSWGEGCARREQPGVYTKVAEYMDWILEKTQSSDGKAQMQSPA
FXa, sequence (P00742 235-488 limits assumed): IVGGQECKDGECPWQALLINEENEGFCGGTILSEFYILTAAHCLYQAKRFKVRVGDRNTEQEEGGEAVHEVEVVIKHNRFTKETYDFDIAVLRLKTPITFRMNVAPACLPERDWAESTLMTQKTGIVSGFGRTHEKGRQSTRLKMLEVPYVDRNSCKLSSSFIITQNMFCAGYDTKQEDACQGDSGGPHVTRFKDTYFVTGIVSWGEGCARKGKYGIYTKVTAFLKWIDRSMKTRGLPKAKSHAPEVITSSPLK
FXa, sequence (P00742 41-179 partner limits assumed): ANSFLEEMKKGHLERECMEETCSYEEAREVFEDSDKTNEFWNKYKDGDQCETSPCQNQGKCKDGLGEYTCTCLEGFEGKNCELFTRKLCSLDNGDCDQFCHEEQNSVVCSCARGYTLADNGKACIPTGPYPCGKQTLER

Molecule | human plasma kallikrein-inhibiting activity (human plasma kallikrein) | human FXa-inhibiting activity (FXa) | plasma kallikrein-inhibiting activity (human plasma kallikrein; experiments of the inventors, stated in the background) | FXa-inhibiting activity (FXa; experiments of the inventors, even at an extremely high concentration)
CC51: polypeptide defined by the amino acid sequence of formula 1, purified from culture supernatant of E. coli JE5505 (pM560) (CNLPIVRGPCRAFIQLWAFDAVKGKCVLFPYGGCQGNGNKFYSEKECREYC) | activity was found | activity was found |  | 
B1 | activity was found | activity was found |  | 
B2 | activity was found | activity was found |  | 
B3 | activity was not found | activity was not found | no plasma kallikrein-inhibiting activity | no FXa-inhibiting activity was found
